For this test, the target named is SidN (Lpg1083), recombinant with 6-His tag (Legionella pneumophila) (UniProt Q5ZWK2). Briefly: SEC. On the technique in general: SEC sorts molecules by how far they enter the pores of the column.

The stoichiometry N is the number of molecules, sites or subunits per partner or assembly. As to “SidN (Lpg1083), recombinant with 6-His tag (from UniProt Q5ZWK2 1-227) (natural protein)”, the stoichiometry N stood at 2.

These data come from paper PMC10729856.
